Measured values reported in the supplement of paper PMC7877785.
± gives the uncertainty stated by the source.

Assay: self-splicing fitness, log relative to wild type (ln ratio); higher = more splicing; Tetrahymena group I intron in knt gene, E. coli kanamycin selection, DiMSum; sequences stand for … in CUCUCU…GGAGGGAAAAGUUAUCAGGCAUGCACCUGGUAGCUAGUCUUUAAACCAAUAGAUUGCAUCGGUUUAAAAGGCAAGACCGUCAAAUUGCGGGAAAGGGGUCAACAGCCGUUCAGUACCAAGUCUCAGGGGAAACUUUGAGAUGGCCUUGCAAAGGGUAUGGUAAUAAGCUGACGGACAUGGUCCUAACCACGCAGCCAAGUCCUAAGUCAACAGAUCUUCUGUUGAUAUGGAUGCAGUUCACAGACUAAAUGUCGGUCGGGGAAGAUGUAUUCUUCUCAUAAGAUAUAGUCGGACCUCUCCUUAAUGGGAGCUAGCGGAUGAAGUGAUGCAACACUGGAGCCGCUGGGAACUAAUUUGUAUGCGAAAGUAUAUUGAUUAGUUUUGGAGUACUCGUGGUCG
Outline: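 Pooled colonies went to amplicon sequencing on an Illumina HiSeq 2500 after six replicate transformations. The plates were LB agar with 100 μg/mL carbenicillin, 50 μM IPTG and 0.2% rhamnose, with or without 25 μg/mL kanamycin, incubated overnight at 37°C or 30°C. The E. coli BL21(DE3) library had all eight P1ex-region intron nucleotides randomised, the intron placed in the knt kanamycin-resistance gene on pET-22b(+). DiMSum fitness is the error-weighted combination of replicate fold changes, kanamycin against none, normalised to wild type.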

Sequence | self-splicing fitness (ln) (30 °C) | self-splicing fitness (ln) (37 °C)
CUACAGCAAUAUUACGGCUU | -2.38 ± 0.15 | –
CUACAGCAAUAUUACGGGAA | -2.88 ± 0.24 | -2.28 ± 0.23
CUACAGCAAUAUUACGGGGC | -2.95 ± 0.2 | -2.57 ± 0.22
CUACAGCAAUAUUACGGUCC | -2.72 ± 0.18 | -2.15 ± 0.24
CUACAGCAAUAUUACGGUCG | -0.256 ± 0.068 | 0.417 ± 0.082
CUACAGCAAUAUUACGUAGA | -4.4 ± 0.21 | -2.56 ± 0.14
CUACAGCAAUAUUACGUAGG | -1.39 ± 0.059 | -1.14 ± 0.093
CUACAGCAAUAUUACGUCCG | -0.955 ± 0.095 | 0.368 ± 0.12
CUACAGCAAUAUUACGUUGA | -3.13 ± 0.17 | -3.35 ± 0.21
CUAGAGCAAUAUUACGACAG | 0.262 ± 0.087 | 0.734 ± 0.12
CUAGAGCAAUAUUACGAGCA | – | -3.27 ± 0.31
CUAGAGCAAUAUUACGAGGA | -2.99 ± 0.2 | -2.53 ± 0.28
CUAGAGCAAUAUUACGAUCG | 0.45 ± 0.066 | 0.245 ± 0.088
CUAGAGCAAUAUUACGAUCU | -4.31 ± 0.34 | -2.29 ± 0.34
CUAGAGCAAUAUUACGAUGG | -0.193 ± 0.11 | 0.418 ± 0.14
CUAGAGCAAUAUUACGCAAA | -2.62 ± 0.27 | -1.27 ± 0.4
CUAGAGCAAUAUUACGCAGU | -2.58 ± 0.12 | -3.17 ± 0.2
CUAGAGCAAUAUUACGCAUU | -3.2 ± 0.18 | -2.2 ± 0.25
CUAGAGCAAUAUUACGCCAU | -3.39 ± 0.19 | -3.11 ± 0.29
CUAGAGCAAUAUUACGCCGC | -2.52 ± 0.37 | –
CUAGAGCAAUAUUACGCGAU | -0.892 ± 0.084 | -0.253 ± 0.11
CUAGAGCAAUAUUACGCUAC | -2.83 ± 0.27 | –
CUAGAGCAAUAUUACGCUAU | – | -2.47 ± 0.48
CUAGAGCAAUAUUACGGAAG | -0.402 ± 0.07 | -0.264 ± 0.1
CUAGAGCAAUAUUACGGAGA | -2.51 ± 0.26 | -2.51 ± 0.48
CUAGAGCAAUAUUACGGCAG | 0.0667 ± 0.08 | 0.49 ± 0.11

Sequence | self-splicing fitness (ln) (30 °C) | self-splicing fitness (ln) (37 °C)
CUAGAGCAAUAUUACGGGGA | -2.35 ± 0.22 | -3.06 ± 0.47
CUAGAGCAAUAUUACGGGGG | -2.64 ± 0.24 | -1.11 ± 0.27
CUAGAGCAAUAUUACGGUAC | -3.01 ± 0.33 | –
CUAGAGCAAUAUUACGUAAC | -4.96 ± 0.38 | -2.32 ± 0.19
CUAGAGCAAUAUUACGUGUA | -4.57 ± 0.46 | -2.41 ± 0.23
CUAGAGCAAUAUUACGUGUU | -3.3 ± 0.26 | -2.8 ± 0.3
CUAUAGCAAUAUUACGAAAA | – | -2.17 ± 0.29
CUAUAGCAAUAUUACGAACG | 0.0017 ± 0.29 | -0.388 ± 0.33
CUAUAGCAAUAUUACGAAGG | -1.76 ± 0.13 | -1.72 ± 0.19
CUAUAGCAAUAUUACGACCA | -3.1 ± 0.29 | -2.44 ± 0.35
CUAUAGCAAUAUUACGAGGG | -3.08 ± 0.21 | -2.41 ± 0.27
CUAUAGCAAUAUUACGAUAU | -2.53 ± 0.21 | -2.45 ± 0.45
CUAUAGCAAUAUUACGCAGA | -2.65 ± 0.16 | -1.2 ± 0.14
CUAUAGCAAUAUUACGCGCA | -2.97 ± 0.46 | -1.65 ± 0.47
CUAUAGCAAUAUUACGCGGC | -1.25 ± 0.26 | 0.45 ± 0.25
CUAUAGCAAUAUUACGCGGG | -3.11 ± 0.28 | -2.88 ± 0.31
CUAUAGCAAUAUUACGCUAA | -1.65 ± 0.2 | -2.41 ± 0.32
CUAUAGCAAUAUUACGCUCU | -3.4 ± 0.29 | -2.3 ± 0.34
CUAUAGCAAUAUUACGCUGU | -3.72 ± 0.26 | -1.29 ± 0.22
CUAUAGCAAUAUUACGGAGU | -4.03 ± 0.28 | -2.86 ± 0.26
CUAUAGCAAUAUUACGGCAC | -2.18 ± 0.24 | -1.09 ± 0.42
CUAUAGCAAUAUUACGGCCA | – | -3.35 ± 0.43
CUAUAGCAAUAUUACGGCUA | -2.95 ± 0.28 | -3.42 ± 0.47
CUAUAGCAAUAUUACGGGAC | -2.51 ± 0.3 | –
CUAUAGCAAUAUUACGGGAG | -2.58 ± 0.27 | -1.87 ± 0.28
